Assay results: publication PMC8835810

Target: E117K mutant of rabbit muscle pyruvate kinase (rabbit)
Assay: crystal structure; E117K mutant at 7 mg/mL in 50 mM Tris pH 7.0 with 1.0 mM ATP, 1.0 mM MgCl2, 0.2 mM oxalate; hanging drop; 0.2 M magnesium acetate, 0.1 M sodium cacodylate pH 6.5, 18% w/v PEG 8000; space group P212121, four copies in the asymmetric unit

- stoichiometry N: 4
Substance: E117K mutant of rabbit muscle pyruvate kinase (enzyme)
